Experimental data taken from PMC9600339, “Calpain-1: a Novel Antiviral Host Factor Identified in Porcine Small Intestinal Mucus” (mBio, 2022).
Values joined by “and” are separate entries in the source; they are usually repeats but may differ in a detail not shown here. Equal values may be shown once.

B1: porcine calpain-1 (enzyme, pig (Sus scrofa), UniProt P35750 1-714, looked up)
chain: MAEEVITPVYCTGVSAQVQKLRAKELGLGRHENAIKYLGQDYEQLRAHCLQSGSLFRDEAFPPVPQSLGFKELGPNSSKTYGVKWKRPTELFSNPQFIVDGATRTDICQGALGDCWLLAAIASLTLNDTLLHRVVPHGQSFQNGYAGIFHFQLWQFGEWVDVVVDDLLPTKDGKLVFVHSAQGNEFWSALLEKAYAKVNGSYEALSGGSTSEGFEDFTGGVTEWYELRKAPSDLYSIILKALERGSLLGCSIDISSVLDMEAVTFKKLVKGHAYSVTGAKQVNYQGQMVNLIRMRNPWGEVEWTGAWSDGSSEWNGVDPYQRDQLRVRMEDGEFWMSFRDFLREFTRLEICNLTPDALKSQRVRNWNTTLYEGTWRRGSTAGGCRNYPATFWVNPQFKIRLEETDDPEDDYGGRESGCSFVLALMQKHRRRERRFGRDMETIGFAVYEVPPELVGQPVHLKRDFFLANASRARSEQFINLREVSTRFRLPPGEYVVVPSTFEPNKEGDFVLRFFSEKKAGTQELDDQVQAILPDEQVLSEEEIDENFKALFRQLAGEDMEISVRELRTILNRIISKHKDLRTKGFSLESCRSMVNLMDRDGNGKLGLVEFNILWNRIRNYLSIFRKFDLDKSGSMSAYEMRMAIESAGFKLNKKLFELIITRYSEPDLAVDFDNFVCCLVRLETMFRFFKTLDTDLDGVVTFDLFKWLQLTMFA
notes: calpain-1 (catalytic subunit), pig (Sus scrofa); The discussion says in general that calpain-1 is a heterodimer of a catalytic subunit and a regulatory subunit (CAPNS1); also called CAP; p-calpain-1; source: calpain-1 purified from porcine small intestinal mucus fraction III on an antibody column; recombinant p-calpain-1 from HEK 293F, Ni-NTA

Legend:
[1] = target: porcine calpain-1 (pig (Sus scrofa)) (UniProt P35750); test: SPR; calpain-1 immobilised on a CM5 chip by amino coupling (8,860 RU); PEDV S1 protein injected at 100 to 0.8 uM; room temperature; running buffer pH 5.4, 25 mM HEPES, 100 mM NaCl, 3 mM EDTA with 5 mM CaCl2; 1:1 Langmuir model; average KD of triplicates
[2] = target: recombinant S1 protein of PEDV strain CV777 (S1 domain of the spike protein) (porcine epidemic diarrhea virus, …, UniProt Q91AV1 1-1319, Expressed in a prokaryotic system, so not glycosylated. Construct limits are not printed: S1 is taken by convention as ending at residue 789, with the signal peptide 1-25 removed per UniProt.); test: as above; conditions: both partners purified

| Molecule | Kd [1] | Kd [2] |
| --- | --- | --- |
| recombinant S1 protein of PEDV strain OH851 (S1 domain of the spike protein) (domain or fragment) | 787 nM |  |
| protein S1Δb1: PEDV S1 (CV777) lacking the b1 domain (N297 to A337) (from UniProt Q91AV1 1-1319) (domain or fragment) | 198000 nM |  |
| B1 |  | 1070 nM and 2500 nM |
